The values that follow come from paper doi:10.64898/2025.12.17.694860 (2025).

The target in this assay is T1, Trypanosoma brucei enolase (Trypanosoma brucei).
T1 chain: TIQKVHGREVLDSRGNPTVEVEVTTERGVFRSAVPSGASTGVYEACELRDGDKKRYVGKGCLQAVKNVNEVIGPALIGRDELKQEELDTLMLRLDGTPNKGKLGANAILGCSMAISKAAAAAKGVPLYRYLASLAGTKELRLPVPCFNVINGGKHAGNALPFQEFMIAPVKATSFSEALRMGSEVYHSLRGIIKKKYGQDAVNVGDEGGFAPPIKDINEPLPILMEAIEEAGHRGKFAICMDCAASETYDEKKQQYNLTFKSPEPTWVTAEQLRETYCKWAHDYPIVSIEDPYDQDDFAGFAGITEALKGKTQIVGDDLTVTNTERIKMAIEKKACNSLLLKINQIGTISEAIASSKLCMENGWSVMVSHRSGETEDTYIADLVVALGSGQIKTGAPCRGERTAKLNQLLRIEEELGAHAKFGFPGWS
Put plainly: ITC. On the technique in general: Isothermal titration calorimetry measures the heat released or taken up as one component is titrated into another.

B1: sdAbR1-10 (VHH)
VHH: QVQLQESGGGLVQPGGSLRLSCAAPGSIFSIFSGNIMGWYRQAPGKQRDFVASISSGGATNYADSVKGRFTISRDNAKNTVYLQMNNLKPEDTAVYYCNTVGGVHTNSWGQGTQVTVSS
For B1, the Kd is 18.6 nM.

A word on the Kd: it is the equilibrium constant for the complex coming apart. Read a low Kd as higher affinity.
